Test results as given in patent US10611814 (GEMOAB MONOCLONALS, dated 2020).
One block for each binder: values may come before it.

Legend:
Assay in all cases: cell-based or functional assay
[1] = molecular target: CD123 antigen (UniProt P26951 19-378, limits assumed)
[2] = molecular target: CD33 antigen (UniProt P20138 18-364, limits assumed)
[3] = molecular target: prostate membrane antigen (UniProt Q04609 1-750, limits assumed)
[4] = molecular target: T1, prostate stem cell antigen (UniProt O43653 12-83, limits assumed)
T1 sequence (looked up): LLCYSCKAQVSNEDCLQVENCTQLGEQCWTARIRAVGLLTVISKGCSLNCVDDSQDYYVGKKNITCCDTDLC

CD123 antigen, sequence (P26951 19-378 limits assumed): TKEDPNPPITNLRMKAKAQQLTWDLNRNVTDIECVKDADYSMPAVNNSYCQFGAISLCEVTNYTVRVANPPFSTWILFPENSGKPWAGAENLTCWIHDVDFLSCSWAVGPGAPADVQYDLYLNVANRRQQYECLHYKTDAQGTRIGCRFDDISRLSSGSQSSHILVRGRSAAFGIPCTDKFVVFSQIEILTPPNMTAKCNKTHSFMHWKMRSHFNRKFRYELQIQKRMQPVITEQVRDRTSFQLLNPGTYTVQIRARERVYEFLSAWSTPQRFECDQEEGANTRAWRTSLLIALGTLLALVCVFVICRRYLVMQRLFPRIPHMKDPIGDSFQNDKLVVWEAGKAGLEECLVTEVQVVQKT
CD33 antigen, sequence (P20138 18-364 limits assumed): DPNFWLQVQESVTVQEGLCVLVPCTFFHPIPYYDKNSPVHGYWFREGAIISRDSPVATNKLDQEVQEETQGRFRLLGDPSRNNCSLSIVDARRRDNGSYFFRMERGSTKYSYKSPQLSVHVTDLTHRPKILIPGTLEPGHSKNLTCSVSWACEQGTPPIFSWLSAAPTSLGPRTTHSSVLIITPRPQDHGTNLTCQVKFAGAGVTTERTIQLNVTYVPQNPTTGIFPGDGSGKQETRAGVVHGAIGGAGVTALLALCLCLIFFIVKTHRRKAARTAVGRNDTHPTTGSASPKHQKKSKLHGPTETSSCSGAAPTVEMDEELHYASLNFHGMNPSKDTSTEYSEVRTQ
prostate membrane antigen, sequence (Q04609 whole entry): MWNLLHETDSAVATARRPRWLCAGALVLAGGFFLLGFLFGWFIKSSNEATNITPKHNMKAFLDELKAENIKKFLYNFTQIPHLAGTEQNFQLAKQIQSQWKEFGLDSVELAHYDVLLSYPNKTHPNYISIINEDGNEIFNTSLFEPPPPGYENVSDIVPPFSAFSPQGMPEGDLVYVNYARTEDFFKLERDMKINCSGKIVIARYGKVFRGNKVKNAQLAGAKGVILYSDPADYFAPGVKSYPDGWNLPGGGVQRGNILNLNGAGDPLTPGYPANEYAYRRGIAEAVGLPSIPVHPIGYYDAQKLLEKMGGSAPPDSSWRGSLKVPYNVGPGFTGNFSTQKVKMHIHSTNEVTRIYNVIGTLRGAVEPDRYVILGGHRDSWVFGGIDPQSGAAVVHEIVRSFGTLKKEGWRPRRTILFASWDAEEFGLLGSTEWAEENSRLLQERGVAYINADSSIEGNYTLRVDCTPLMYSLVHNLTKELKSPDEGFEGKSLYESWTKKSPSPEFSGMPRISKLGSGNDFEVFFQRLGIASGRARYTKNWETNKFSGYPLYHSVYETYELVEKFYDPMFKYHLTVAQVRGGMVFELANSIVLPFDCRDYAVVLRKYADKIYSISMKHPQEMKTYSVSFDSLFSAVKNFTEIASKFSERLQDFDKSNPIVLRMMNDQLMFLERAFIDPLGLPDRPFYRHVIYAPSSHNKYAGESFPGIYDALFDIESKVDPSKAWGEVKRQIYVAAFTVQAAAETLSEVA

EC50, lysis of MOLM-13 by UniCAR T cells, e:t 1:1 [1]: 45 pmol
B1: target module specific for CD123 (scFv)
scFv: DAAQPAEVQLQQSGPELVKPGASVKMSCKASGYTFTDYYMKWVKQSHGKSLEWIGDIIPSNGATFYNQKFKGKATLTVDRSSSTAYMHLNSLTSEDSAVYYCTRSHLLRASWFAYWGQGTLVTVSAASGGGGSGGGGSGGGGSDFVMTQSPSSLTVTAGEKVTMSCKSSQSLLNSGNQKNYLTWYLQKPGQPPKLLIYWASTRESGVPDRFTGSGSGTDFTLTISSVQAEDLAVYYCQNDYSYPYTFGGGTKLEIKGGGGSAAAKPLPEVTDEYARGGPEQKLISEEDLNSAVDHHHHHH
EC50, 51Cr-release lysis of MOLM-13 by UniCAR T cells, e:t 1:1, 24 h; combination of αCD33 TM + αCD123 TM [1]: 70.2 pmol | EC50, 51Cr-release lysis of OCI-AML3 by UniCAR T cells, e:t 1:1, 24 h; combination of αCD33 TM + αCD123 TM [1]: 80.2 pmol

EC50, lysis of MOLM-13 by UniCAR T cells, e:t 1:1 [2]: 137 pmol
B2: target module specific for CD33 (scFv)
scFv: DAAQPAGSDIVLTQSPASLAVSPGQRATITCTASSSVNYIHWYQQKPGQPPKLLIYDTSKVASGVPARFSGSGSGTDFTLTINPVEANDTANYYCQQWRSYPLTFGQGTKLEIKGGGGSGGGGSGASGAGGGGSGGGGSQVQLVQSGAEVKKPGASVKVSCKASGYTFTDYVVHWVRQAPGQGLEWMGYINPYNDGTKYNEKFKGRVTMTRDTSISTAYMELSRLRSDDTAVYYCARDYRYEVYGMDYWGQGTLVTVSSGGGGSAAAKPLPEVTDEYARGGPEQKLISEEDLNSAVDHHHHHH
EC50, 51Cr-release lysis of MOLM-13 by UniCAR T cells, e:t 1:1, 24 h; combination of αCD33 TM + αCD123 TM [2]: 70.2 pmol | EC50, 51Cr-release lysis of OCI-AML3 by UniCAR T cells, e:t 1:1, 24 h; combination of αCD33 TM + αCD123 TM [2]: 80.2 pmol

Half maximal effective dosis (EC50), 51Cr-release lysis of PC3 cells expressing PSMA by UniCAR T cells, e:t 5:1 [3]: ~12 pmol
B3: target module specific for PSMA (scFv)
scFv: DAAQPAEVQLQQSGPELVKPGTSVRISCKTSGYTFTEYTIHWVKQSHGKSLEWIGNINPNNGGTTYNQKFEDKATLTVDKSSSTAYMELRSLTSEDSAVYYCAAGWNFDYWGQGTTVTVSSGGGGSGGGGSGGGGSDIVMTQSHKFMSTSVGDRVSIICKASQDVGTAVDWYQQKPGQSPKLLIYWASTRHTGVPDRFTGSGSGTDFTLTITNVQSEDLADYFCQQYNSYPLTFGAGTMLDLKAAAKPLPEVTDEYARGGPEQKLISEEDLNSAVDHHHHHH

B4: bi-specific CD33-CD123 target module (bispecific antibody)
chain: DAAQPAEVQLQQSGPELVKPGASVKMSCKASGYTFTDYYMKWVKQSHGKSLEWIGDIIPSNGATFYNQKFKGKATLTVDRSSSTAYMHLNSLTSEDSAVYYCTRSHLLRASWFAYWGQGTLVTVSAASGGGGSGGGGSGGGGSDFVMTQSPSSLTVTAGEKVTMSCKSSQSLLNSGNQKNYLTWYLQKPGQPPKLLIYWASTRESGVPDRFTGSGSGTDFTLTISSVQAEDLAVYYCQNDYSYPYTFGGGTKLEIKAAAKPLPEVTDEYARGQVQLVQSGAEVKKPGASVKVSCKASGYTFTDYVVHWVRQAPGQGLEWMGYINPYNDGTKYNEKFKGRVTMTRDTSISTAYMELSRLRSDDTAVYYCARDYRYEVYGMDYWGQGTLVTVSSGGGGSGGGGSGGGGSDIVLTQSPASLAVSPGQRATITCTASSSVNYIHWYQQKPGQPPKLLIYDTSKVASGVPARFSGSGSGTDFTLTINPVEANDTANYYCQQWRSYPLTFGQGTKLEIKGPEQKLISEEDLNSAVDHHHHHH
EC50, 51Cr-release lysis of MOLM-13 by UniCAR T cells, e:t 1:1, 24 h; bispecific TM [2]: 2.9 pmol | EC50, 51Cr-release lysis of OCI-AML3 by UniCAR T cells, e:t 1:1, 24 h; bispecific TM [2]: 11.7 pmol | EC50, 51Cr-release lysis of MOLM-13 by UniCAR T cells, e:t 1:1, 24 h; bispecific TM [1]: 2.9 pmol | EC50, 51Cr-release lysis of OCI-AML3 by UniCAR T cells, e:t 1:1, 24 h; bispecific TM [1]: 11.7 pmol

Half maximal effective dosis (EC50), 51Cr-release lysis of PC3 cells expressing PSCA by UniCAR T cells, e:t 5:1 [4]: ~12 pmol
B5: target module specific for PSCA (scFv)
scFv: DAAQPAGSDIQMTQSPSSLSASVGDRVTITCGTSQDINNYLNWYQQKPGKVPKLLIYYTSRLHSGVPSRFSGSGSGTDFTLTISSLQPEDVATYYCQQSKTLPWTFGGGTQLTVLGGGGSGGGGSGASAAGGGGSGGGGSQVQLVESGGGLVKPGGSLRLSCAASGFTFSSYSMSWIRQAPGKGLEWVSYINDSGGSTFYPDTVKGRFTISRDNAKNSLYLQMNSLRAEDTAVYYCARRMYYGNSHWHFDVWGQGTTVTVSSGGGGSAAAKPLPEVTDEYARGGPEQKLISEEDLNSAVDHHHHHH
